Results reported in PMC12169213 (Science (New York, N.Y.), 2025).

Key:
BRCA1-BARD1 = BRCA1-BARD1 (UniProt P38398 1-1863; Q99728 1-777); assay: pull-down
mCherry-BLM = mCherry-BLM (UniProt P54132 1-1417); assay: DNA curtain single-molecule imaging
Chain of mCherry-BLM (P54132 whole entry): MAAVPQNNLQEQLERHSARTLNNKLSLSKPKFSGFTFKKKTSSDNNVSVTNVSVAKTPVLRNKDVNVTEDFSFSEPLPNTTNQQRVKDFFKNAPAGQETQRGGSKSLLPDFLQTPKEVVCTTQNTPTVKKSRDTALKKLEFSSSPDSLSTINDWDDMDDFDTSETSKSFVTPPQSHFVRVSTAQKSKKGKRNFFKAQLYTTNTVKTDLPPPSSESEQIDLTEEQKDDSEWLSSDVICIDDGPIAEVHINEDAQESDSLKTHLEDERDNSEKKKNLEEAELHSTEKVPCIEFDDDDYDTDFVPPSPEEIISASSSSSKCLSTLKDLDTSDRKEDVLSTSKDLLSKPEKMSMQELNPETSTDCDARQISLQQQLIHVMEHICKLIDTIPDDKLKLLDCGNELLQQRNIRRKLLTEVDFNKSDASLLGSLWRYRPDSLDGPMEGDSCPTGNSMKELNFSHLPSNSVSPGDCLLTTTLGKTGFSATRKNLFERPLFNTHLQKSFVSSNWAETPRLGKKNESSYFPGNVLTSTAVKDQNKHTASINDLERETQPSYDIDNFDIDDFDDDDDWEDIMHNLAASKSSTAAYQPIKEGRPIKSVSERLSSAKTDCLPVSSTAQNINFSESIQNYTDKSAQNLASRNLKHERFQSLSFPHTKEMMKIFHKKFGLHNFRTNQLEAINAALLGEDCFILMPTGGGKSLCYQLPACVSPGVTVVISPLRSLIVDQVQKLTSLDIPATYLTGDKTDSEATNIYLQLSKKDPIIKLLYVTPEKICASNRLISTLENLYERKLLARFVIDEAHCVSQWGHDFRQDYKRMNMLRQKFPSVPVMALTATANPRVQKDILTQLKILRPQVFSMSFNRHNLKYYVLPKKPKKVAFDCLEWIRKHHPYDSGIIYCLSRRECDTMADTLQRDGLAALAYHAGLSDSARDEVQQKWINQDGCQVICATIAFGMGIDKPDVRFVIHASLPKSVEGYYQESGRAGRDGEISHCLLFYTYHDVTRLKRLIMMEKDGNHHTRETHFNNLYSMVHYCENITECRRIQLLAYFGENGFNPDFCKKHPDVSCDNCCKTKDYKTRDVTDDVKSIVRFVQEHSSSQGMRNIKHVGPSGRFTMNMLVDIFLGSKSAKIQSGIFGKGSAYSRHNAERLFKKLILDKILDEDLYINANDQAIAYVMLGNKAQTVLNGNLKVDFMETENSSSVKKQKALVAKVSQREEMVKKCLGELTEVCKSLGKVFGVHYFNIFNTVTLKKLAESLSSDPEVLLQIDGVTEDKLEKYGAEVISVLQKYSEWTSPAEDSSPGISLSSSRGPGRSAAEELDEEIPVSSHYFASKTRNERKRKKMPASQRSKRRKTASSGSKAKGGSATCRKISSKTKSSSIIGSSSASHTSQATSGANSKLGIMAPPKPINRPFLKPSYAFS

Chain of BRCA1-BARD1 (P38398 whole entry, chain 1 of 2): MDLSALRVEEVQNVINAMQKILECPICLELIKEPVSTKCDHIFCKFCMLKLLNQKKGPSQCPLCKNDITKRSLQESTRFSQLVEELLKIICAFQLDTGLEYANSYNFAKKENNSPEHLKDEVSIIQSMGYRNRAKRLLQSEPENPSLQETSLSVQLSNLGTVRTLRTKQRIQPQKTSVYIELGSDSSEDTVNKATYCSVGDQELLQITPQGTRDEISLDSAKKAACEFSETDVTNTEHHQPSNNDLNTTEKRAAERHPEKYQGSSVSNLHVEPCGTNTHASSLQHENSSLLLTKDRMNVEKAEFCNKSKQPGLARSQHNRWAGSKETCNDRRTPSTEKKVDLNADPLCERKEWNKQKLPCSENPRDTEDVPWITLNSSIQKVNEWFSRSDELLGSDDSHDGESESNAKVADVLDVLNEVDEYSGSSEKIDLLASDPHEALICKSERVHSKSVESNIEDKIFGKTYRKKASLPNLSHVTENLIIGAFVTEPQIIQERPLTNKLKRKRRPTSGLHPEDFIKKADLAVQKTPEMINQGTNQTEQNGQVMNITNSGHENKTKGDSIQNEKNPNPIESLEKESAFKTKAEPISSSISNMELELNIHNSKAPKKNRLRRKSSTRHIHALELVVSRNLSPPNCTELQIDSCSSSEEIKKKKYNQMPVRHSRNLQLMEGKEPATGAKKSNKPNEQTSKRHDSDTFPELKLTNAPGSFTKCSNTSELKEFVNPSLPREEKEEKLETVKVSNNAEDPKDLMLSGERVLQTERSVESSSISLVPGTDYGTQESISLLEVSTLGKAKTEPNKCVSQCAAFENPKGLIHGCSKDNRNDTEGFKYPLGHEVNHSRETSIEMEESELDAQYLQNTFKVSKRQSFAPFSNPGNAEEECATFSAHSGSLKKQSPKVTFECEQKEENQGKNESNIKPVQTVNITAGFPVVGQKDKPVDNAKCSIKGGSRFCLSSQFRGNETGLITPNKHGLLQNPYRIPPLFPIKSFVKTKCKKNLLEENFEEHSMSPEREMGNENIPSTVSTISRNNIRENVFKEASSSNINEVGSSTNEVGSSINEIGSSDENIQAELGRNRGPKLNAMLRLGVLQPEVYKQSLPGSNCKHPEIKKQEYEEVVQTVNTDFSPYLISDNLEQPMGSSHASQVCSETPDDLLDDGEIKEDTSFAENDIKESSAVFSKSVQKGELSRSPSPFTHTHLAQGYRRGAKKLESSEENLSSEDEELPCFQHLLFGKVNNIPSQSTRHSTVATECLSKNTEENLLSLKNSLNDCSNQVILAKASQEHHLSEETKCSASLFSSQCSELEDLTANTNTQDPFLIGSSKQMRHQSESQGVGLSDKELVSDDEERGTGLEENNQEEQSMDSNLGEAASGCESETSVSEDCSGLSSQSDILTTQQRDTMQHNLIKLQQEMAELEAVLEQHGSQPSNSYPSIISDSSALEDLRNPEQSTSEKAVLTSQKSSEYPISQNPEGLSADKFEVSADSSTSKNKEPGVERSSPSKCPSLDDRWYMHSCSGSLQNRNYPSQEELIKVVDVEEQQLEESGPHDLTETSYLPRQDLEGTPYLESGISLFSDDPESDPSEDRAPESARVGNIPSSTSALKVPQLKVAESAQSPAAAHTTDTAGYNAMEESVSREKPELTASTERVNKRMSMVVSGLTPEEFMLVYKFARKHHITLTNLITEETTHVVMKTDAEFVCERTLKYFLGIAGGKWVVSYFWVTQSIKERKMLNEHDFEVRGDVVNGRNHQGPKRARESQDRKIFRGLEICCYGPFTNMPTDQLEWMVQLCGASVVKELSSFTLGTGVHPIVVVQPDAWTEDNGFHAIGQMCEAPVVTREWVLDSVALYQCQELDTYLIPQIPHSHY
Chain of BRCA1-BARD1 (Q99728 whole entry, chain 2 of 2): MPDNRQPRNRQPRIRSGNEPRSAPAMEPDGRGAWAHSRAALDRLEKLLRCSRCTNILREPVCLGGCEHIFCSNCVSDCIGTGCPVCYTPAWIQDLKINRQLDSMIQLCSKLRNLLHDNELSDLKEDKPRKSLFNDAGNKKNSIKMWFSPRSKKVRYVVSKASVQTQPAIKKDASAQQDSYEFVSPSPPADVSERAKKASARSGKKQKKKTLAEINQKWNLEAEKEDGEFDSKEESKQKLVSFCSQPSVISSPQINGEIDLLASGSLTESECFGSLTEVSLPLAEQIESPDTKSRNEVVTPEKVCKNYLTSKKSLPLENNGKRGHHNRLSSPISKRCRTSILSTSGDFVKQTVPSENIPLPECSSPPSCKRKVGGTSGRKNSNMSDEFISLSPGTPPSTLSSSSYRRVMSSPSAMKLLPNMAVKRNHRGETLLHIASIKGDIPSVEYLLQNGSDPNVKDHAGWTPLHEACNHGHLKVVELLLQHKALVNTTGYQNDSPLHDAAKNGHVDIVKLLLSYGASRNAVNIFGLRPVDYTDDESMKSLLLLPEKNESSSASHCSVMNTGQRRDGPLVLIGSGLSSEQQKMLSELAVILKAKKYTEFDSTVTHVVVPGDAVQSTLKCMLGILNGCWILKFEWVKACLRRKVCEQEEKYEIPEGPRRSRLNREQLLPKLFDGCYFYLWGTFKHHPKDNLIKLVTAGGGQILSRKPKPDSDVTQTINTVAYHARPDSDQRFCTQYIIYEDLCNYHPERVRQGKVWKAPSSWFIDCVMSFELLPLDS

binding result (BRCA1-BARD1) | binding result (mCherry-BLM) | Binder
binds |  | CTC1-STN1-TEN1 (CST) complex (complex) chain 1: AAGRAQVPSSEQAWLEDAQVFIQKTLCPAVKEPNVQLTPLVIDCVKTVWLSQGRNQGSTLPLSYSFVSVQDLKTHQRLPCCSHLSWSSSAYQAWAQEAGPNGNPLPREQLLLLGTLTDLSADLEQECRNGSLYVRDNTGVLSCELIDLDLSWLGHLFLFPRWSYLPPARWNSSGEGHLELWDAPVPVFPLTISPGPVTPIPVLYPESASCLLRLRNKLRGVQRNLAGSLVRLSALVKSKQKAYFILSLGRSHPAVTHVSIIVQVPAQLVWHRALRPGTAYVLTELRVSKIRGQRQHVWMTSQSSRLLLLKPECVQELELELEGPLLEADPKPLPMPSNSEDKKDPESLVRYSRLLSYSGAVTGVLNEPAGLYELDGQLGLCLAYQQFRGLRRVMRPGVCLQLQDVHLLQSVGGGTRRPVLAPCLRGAVLLQSFSRQKPGAHSSRQAYGASLYEQLVWERQLGLPLYLWATKALEELACKLCPHVLRHHQFLQHSSPGSPSLGLQLLAPTLDLLAPPGSPVRNAHNEILEEPHHCPLQKYTRLQTPSSFPTLATLKEEGQRKAWASFDPKALLPLPEASYLPSCQLNRRLAWSWLCLLPSAFCPAQVLLGVLVASSHKGCLQLRDQSGSLPCLLLAKHSQPLSDPRLIGCLVRAERFQLIVERDVRSSFPSWKELSMPGFIQKQQARVYVQFFLADALILPVPRPCLHSATPSTPQTDPTGPEGPHLGQSRLFLLCHKEALMKRNFCVPPGASPEVPKPALSFYVLGSWLGGTQRKEGTGWGLPEPQGNDDNDQKVHLIFFGSSVRWFEFLHPGQVYRLIAPGPATPMLFEKDGSSCISRRPLELAGCASCLTVQDNWTLELESSQDIQDVLDANKSLPESSLTDLLSDNFTDSLVSFSAEILSRTLCEPLVASLWMKLGNTGAMRRCVKLTVALETAECEFPPHLDVYIEDPHLPPSLGLLPGARVHFSQLEKRVSRSHNVYCCFRSSTYVQVLSFPPETTISIPLPHIYLAELLQGGQSPFQATASCHIVSVFSLQLFWVCAYCTSICRQGKCTRLGSTCPTQTAISQAIIRLLVEDGTAEAVVTCRNHHVAAALGLCPREWASLLDFVQVPGRVVLQFAGPGAQLESSARVDEPMTMFLWTLCTSPSVLRPIVLSFELERKPSKIVPLEPPRLQRFQCGELPFLTHVNPRLRLSCLSIRESEYSSSLGILASSC chain 2: QPGSSRCEEETPSLLWGLDPVFLAFAKLYIRDILDMKESRQVPGVFLYNGHPIKQVDVLGTVIGVRERDAFYSYGVDDSTGVINCICWKKLNTESVSAAPSAARELSLTSQLKKLQETIEQKTKIEIGDTIRVRGSIRTYREEREIHATTYYKVDDPVWNIQIARMLELPTIYRKVYDQPFHSSALEKEEALSNPGALDLPSLTSLLSEKAKEFLMENRVQSFYQQELEMVESLLSLANQPVIHSASSDQVNFKKDTTSKAIHSIFKNAIQLLQEKGLVFQKDDGFDNLYYVTREDKDLHRKIHRIIQQDCQKPNHMEKGCHFLHILACARLSIRPGLSEAVLQQVLELLEDQSDIVSTMEHYYTAF chain 3: LPKPGTYYLPWEVSAGQVPDGSTLRTFGRLCLYDMIQSRVTLMAQHGSDQHQVLVCTKLVEPFHAQVGSLYIVLGELQHQQDRGSVVKARVLTCVEGMNLPLLEQAIREQRLYKQERGGSQ
 | binds | green fluorescent protein (GFP)-DNA2 (enzyme, UniProt P51530 1-1060, looked up) MEQLNELELLMEKSFWEEAELPAELFQKKVVASFPRTVLSTGMDNRYLVLAVNTVQNKEGNCEKRLVITASQSLENKELCILRNDWCSVPVEPGDIIHLEGDCTSDTWIIDKDFGYLILYPDMLISGTSIASSIRCMRRAVLSETFRSSDPATRQMLIGTVLHEVFQKAINNSFAPEKLQELAFQTIQEIRHLKEMYRLNLSQDEIKQEVEDYLPSFCKWAGDFMHKNTSTDFPQMQLSLPSDNSKDNSTCNIEVVKPMDIEESIWSPRFGLKGKIDVTVGVKIHRGYKTKYKIMPLELKTGKESNSIEHRSQVVLYTLLSQERRADPEAGLLLYLKTGQMYPVPANHLDKRELLKLRNQMAFSLFHRISKSATRQKTQLASLPQIIEEEKTCKYCSQIGNCALYSRAVEQQMDCSSVPIVMLPKIEEETQHLKQTHLEYFSLWCLMLTLESQSKDNKKNHQNIWLMPASEMEKSGSCIGNLIRMEHVKIVCDGQYLHNFQCKHGAIPVTNLMAGDRVIVSGEERSLFALSRGYVKEINMTTVTCLLDRNLSVLPESTLFRLDQEEKNCDIDTPLGNLSKLMENTFVSKKLRDLIIDFREPQFISYLSSVLPHDAKDTVACILKGLNKPQRQAMKKVLLSKDYTLIVGMPGTGKTTTICTLVRILYACGFSVLLTSYTHSAVDNILLKLAKFKIGFLRLGQIQKVHPAIQQFTEQEICRSKSIKSLALLEELYNSQLIVATTCMGINHPIFSRKIFDFCIVDEASQISQPICLGPLFFSRRFVLVGDHQQLPPLVLNREARALGMSESLFKRLEQNKSAVVQLTVQYRMNSKIMSLSNKLTYEGKLECGSDKVANAVINLRHFKDVKLELEFYADYSDNPWLMGVFEPNNPVCFLNTDKVPAPEQVEKGGVSNVTEAKLIVFLTSIFVKAGCSPSDIGIIAPYRQQLKIINDLLARSIGMVEVNTVDKYQGRDKSIVLVSFVRSNKDGTVGELLKDWRRLNVAITRAKHKLILLGCVPSLNCYPPLEKLLNHLNSEKLIIDLPSREHESLCHILGDFQRE
